Data: patent US20210395742

Legend:
Assay in all cases: EMSA
[1] = tested on: Mouse IgG1 monoclonal antibody (including anti-streptavidin) (Mus musculus); details: T = 5-ethynyldeoxyuridine clicked with sulfo-HSAB (NHS ester); for EC50: half-maximal covalent binding (estimate), Kd not determinable; for binding signal (% bound fraction): maximum covalent binding fraction
[2] = tested on: Mouse IgG2b (Mus musculus); details: T = 5-ethynyldeoxyuridine clicked with sulfo-HSAB (NHS ester), covalent binding fraction
[3] = tested on: Mouse IgG2a (Mus musculus); details: T = 5-ethynyldeoxyuridine clicked with sulfo-HSAB (NHS ester), covalent binding fraction
[4] = core of consensus SEQ:22, flanks not given
[5] = core of consensus SEQ:23, flanks not given

| Sequence | EC50 ([1]; core of consensus SEQ:22, flanks not given, Cu(II) dependent) [nM] | binding signal (% bound fraction) [1, 4] | binding signal (% bound fraction) [2, 4] | binding signal (% bound fraction) [3, 4] | EC50 [1, 5] [nM] | binding signal (% bound fraction) [1, 5] | binding signal (% bound fraction) [2, 5] | binding signal (% bound fraction) [3, 5] |
| --- | --- | --- | --- | --- | --- | --- | --- | --- |
| AGCGCGGAACCGTGCCTGGC [Fc clone 1] | < 10 | 40 | 10 | 40 |  |  |  |  |
| TAACGCARTAAGCGAG [Fc clone 2] |  |  |  |  | < 10 | 20 | 2 | 20 |
